Patent publication US20220041738A1 (SAITAMA MEDICAL UNIVERSITY, published 2022)
Numbering of substitutions follows the chain as printed. Each block holds one binder with its values, some of them ahead of it.

How the values were obtained:
Experiment in all cases: immunofluorescence (legend of FIG. 4)
[1] = biological target: T1, human ALK2-R206H on cells (human, UniProt Q04771 21-509)
T1 sequence: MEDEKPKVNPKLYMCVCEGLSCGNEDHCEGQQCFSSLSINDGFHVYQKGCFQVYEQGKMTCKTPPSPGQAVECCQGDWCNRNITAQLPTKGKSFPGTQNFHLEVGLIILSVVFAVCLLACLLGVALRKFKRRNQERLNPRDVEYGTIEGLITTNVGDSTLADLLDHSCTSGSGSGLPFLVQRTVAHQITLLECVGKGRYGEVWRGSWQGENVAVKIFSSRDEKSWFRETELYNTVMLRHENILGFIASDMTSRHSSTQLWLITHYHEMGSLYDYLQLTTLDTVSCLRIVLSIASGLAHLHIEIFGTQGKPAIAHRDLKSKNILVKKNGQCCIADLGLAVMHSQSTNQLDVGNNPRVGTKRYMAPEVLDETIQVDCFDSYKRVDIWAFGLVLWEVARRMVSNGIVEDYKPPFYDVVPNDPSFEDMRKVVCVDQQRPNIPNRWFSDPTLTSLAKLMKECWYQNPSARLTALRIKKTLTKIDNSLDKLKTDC
Method: (§1) Mouse C2C12 cells were seeded into a 96-well plate (Greiner Bio-One) at 0.5×10³ cells/well, and cultured in 15% FBS-containing DMEM medium overnight under the conditions of 5% CO₂ at 37° C. On the following day, the C2C12 cells were transfected with each of a wild-type human ALK2 cDNA integrated into pcDEF3; pcDEF3/human ALK2-L196P, pcDEF3/human ALK2-P197_F198delinsL, pcDEF3/human ALK2-R202I, pcDEF3/human ALK2-R206H, pcDEF3/human ALK2-Q207E, pcDEF3/human ALK2-R258S, pcDEF3/human ALK2-G325A, pcDEF3/human ALK2-G328E, pcDEF3/human ALK2-G328R, pcDEF3/human ALK2-G328W, pcDEF3/human ALK2-G356D, and pcDEF3/human ALK2-R375P, which are variants identified in FOP; and pcDEF3 as a control, using Lipofectamine 2000 (Invitrogen), and further cultured overnight.
(§2) The C2C12 cells were fixed with 10% neutral formalin (Nacalai Tesque, Japan) for 20 minutes at room temperature, and then blocked with 10% goat normal serum for 30 minutes. After the blocking agent was removed, purified IgG diluted to 10 μg/mL with the blocking agent was added, and the cells were left for 1 hour at room temperature. After the cells were washed with PBS three times, Goat Alexa 594-conjugated anti-rat IgG (Invitrogen) diluted to 1:1000 with the blocking agent was added, and the cells were left for 1 hour at room temperature. After the cells were washed with PBS three times, the cells were fixed with 10% neutral formalin for 15 minutes at room temperature, and nuclear-stained with DAPI (LifeTechnologies). Fluorescent signals were analyzed with a fluorescence microscope BZ-9000 (Keyence).

[2] = biological target: T2, human ALK2-P197_F198delinsL on cells (human, UniProt Q04771 21-509)
T2 construct: also called delP197_F198insL
T2 sequence: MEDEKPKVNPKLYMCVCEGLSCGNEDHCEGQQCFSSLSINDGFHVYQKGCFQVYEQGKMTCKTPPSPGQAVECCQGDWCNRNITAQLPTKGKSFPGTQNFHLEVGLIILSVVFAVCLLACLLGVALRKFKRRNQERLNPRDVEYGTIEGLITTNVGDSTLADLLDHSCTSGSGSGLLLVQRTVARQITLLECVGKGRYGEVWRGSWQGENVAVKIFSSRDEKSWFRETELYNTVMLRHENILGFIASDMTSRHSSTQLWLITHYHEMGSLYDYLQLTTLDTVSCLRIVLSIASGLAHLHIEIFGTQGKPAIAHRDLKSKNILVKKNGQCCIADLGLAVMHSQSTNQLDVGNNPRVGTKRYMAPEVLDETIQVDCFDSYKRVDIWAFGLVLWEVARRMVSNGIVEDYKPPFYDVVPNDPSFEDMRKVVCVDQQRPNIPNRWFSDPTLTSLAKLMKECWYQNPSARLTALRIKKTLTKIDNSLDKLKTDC
Method: as §1, §2

[3] = biological target: T3, human ALK2-G325A on cells (human, UniProt Q04771 21-509)
T3 sequence: T1 sequence with H186R, G305A
Method: as §1, §2

[4] = biological target: T4, human ALK2-G328R on cells (human, UniProt Q04771 21-509)
T4 sequence: T1 sequence with H186R, G308R
Method: as §1, §2

binding result [1]: binds
binding result [2]: binds
binding result [3]: binds
binding result [4]: binds
B1: rat anti-ALK2 monoclonal antibody A2-11E (antibody, V domains shown)
VH: EVQLVETGGGLVQPGRSLKLSCVASGFTFSNYYMYWIRQAPGKGLEWISSINTDGGSTYYPDSVKGRFAISRDNAENTVYLQMNSLRSEDTATYYCAKSTPNIPLAYWGQGTLVTVSS
VL: DIQMTQSPSLLSASVGDRVTLSCKASQNIYKYLNWFQQKLGEAPKLLIYYSNSLQTGIPSRFSGSGSGTDFTLTISSLQPEDVAIYFCFQYSSGPTFGPGTKLELKR
notes: Rat monoclonal IgG from a hybridoma; also called 11E2

binding result [1]: binds
binding result [2]: binds
binding result [3]: binds
binding result [4]: binds
B2: rat anti-ALK2 monoclonal antibody A2-15A (antibody, V domains shown)
VH: EVQLVESGGGLVQPGRSLKLSCAASGFTFSHYYMAWVRQAPTKGLEWVASITNSGGSINYRDSVKGRFTISRDNAKSTLYLQMDSLRSEDTATYYCTREGGENYGGYPPFAYWGQGTLVTVSS
VL: DIVLTQSPALAVSLGQRATISCRANQGVSLSRYNLMHWYQQKPGQKPKLLIYRSSNLASGIPARFSGSGSGTDFTLTINPVQADDIATYYCQQSRESPFTFGAGTKLELKR
notes: Rat monoclonal IgG from a hybridoma; also called 15A6
